PMC5070869, “Secretion-Positive LGI1 Mutations Linked to Lateral Temporal Epilepsy Impair Binding to ADAM22 and ADAM23 Receptors” (PLoS Genetics, 2016)
Residue numbers refer to the chain shown, from its start. In names and notes the source's numbering stands. One block for each binder: values may come before it.

What was measured:
HA-ADAM23 = target: T1, HA-ADAM23 (UniProt O75077 287-832); experiment: immunostaining of cells or tissue; COS7 cells co-transfected with LGI1-Flag (wild type or mutant) and HA-ADAM22 or HA-ADAM23; 36 h after transfection fixed, LGI1 stained with anti-Flag before permeabilisation, ADAM with anti-HA after it; percentage of co-immunostained cells with both signals on the cell surface counted; three independent experiments; details: partners not purified
T1 construct: ADAM23 (A Disintegrin And Metalloprotease domain 23) receptor, cDNA; Expression of HA-ADAM23 in HEK293T was lower than that of HA-ADAM22; also called HA-tagged ADAM23; HA-fused ADAM23; source: COS7, co-transfected, on cells (immunofluorescence); HEK293T, co-transfected, in lysate (co-IP)
T1 sequence (looked up): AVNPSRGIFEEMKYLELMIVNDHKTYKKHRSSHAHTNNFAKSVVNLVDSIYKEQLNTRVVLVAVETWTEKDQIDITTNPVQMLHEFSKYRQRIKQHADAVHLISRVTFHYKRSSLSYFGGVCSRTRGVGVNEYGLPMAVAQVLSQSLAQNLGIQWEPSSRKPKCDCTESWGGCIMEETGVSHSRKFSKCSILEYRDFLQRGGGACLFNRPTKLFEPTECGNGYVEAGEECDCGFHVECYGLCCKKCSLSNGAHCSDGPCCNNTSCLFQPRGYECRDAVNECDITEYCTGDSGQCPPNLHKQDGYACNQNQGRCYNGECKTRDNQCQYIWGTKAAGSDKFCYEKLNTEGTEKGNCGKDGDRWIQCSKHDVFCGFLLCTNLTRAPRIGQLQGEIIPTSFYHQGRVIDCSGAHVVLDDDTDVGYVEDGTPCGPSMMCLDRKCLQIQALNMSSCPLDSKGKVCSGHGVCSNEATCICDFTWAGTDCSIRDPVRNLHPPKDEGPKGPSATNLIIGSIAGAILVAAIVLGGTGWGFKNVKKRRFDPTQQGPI

HA-ADAM22 = target: T2, HA-ADAM22 (UniProt Q9P0K1 223-906); experiment: as above; details: partners not purified
T2 construct: ADAM22 (A Disintegrin And Metalloprotease domain 22) receptor, cDNA; In the HEK293T lysates it is present in both immature (110 kDa) and mature (90 kDa) forms; also called HA-tagged ADAM22; HA-fused ADAM22; source: COS7, co-transfected, on cells (immunofluorescence); HEK293T, co-transfected, in lysate (co-IP)
T2 sequence (looked up): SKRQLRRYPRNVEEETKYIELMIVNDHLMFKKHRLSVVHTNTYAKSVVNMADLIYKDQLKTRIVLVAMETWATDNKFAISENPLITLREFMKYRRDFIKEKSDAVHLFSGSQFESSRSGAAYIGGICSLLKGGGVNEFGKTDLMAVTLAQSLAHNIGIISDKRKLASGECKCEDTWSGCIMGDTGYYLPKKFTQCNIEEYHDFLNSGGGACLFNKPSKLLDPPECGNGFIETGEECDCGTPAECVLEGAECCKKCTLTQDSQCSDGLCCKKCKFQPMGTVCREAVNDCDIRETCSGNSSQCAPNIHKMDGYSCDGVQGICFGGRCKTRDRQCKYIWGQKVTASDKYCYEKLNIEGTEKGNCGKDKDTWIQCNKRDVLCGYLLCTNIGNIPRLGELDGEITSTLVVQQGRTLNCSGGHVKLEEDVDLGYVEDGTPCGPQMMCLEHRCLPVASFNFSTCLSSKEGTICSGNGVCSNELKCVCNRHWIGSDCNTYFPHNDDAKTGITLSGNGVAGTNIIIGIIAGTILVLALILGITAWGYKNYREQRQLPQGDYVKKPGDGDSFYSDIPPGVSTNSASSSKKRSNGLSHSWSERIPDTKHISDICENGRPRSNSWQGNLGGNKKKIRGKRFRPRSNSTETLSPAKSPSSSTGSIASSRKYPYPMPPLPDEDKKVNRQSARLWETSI

B1: wild type LGI1-Flag (leucine-rich, glioma-inactivated 1) (ligand, human, UniProt O95970 35-557, looked up)
chain: KKPAKPKCPAVCTCTKDNALCENARSIPRTVPPDVISLSFVRSGFTEISEGSFLFTPSLQLLLFTSNSFDVISDDAFIGLPHLEYLFIENNNIKSISRHTFRGLKSLIHLSLANNNLQTLPKDIFKGLDSLTNVDLRGNSFNCDCKLKWLVEWLGHTNATVEDIYCEGPPEYKKRKINSLSSKDFDCIITEFAKSQDLPYQSLSIDTFSYLNDEYVVIAQPFTGKCIFLEWDHVEKTFRNYDNITGTSTVVCKPIVIETQLYVIVAQLFGGSHIYKRDSFANKFIKIQDIEILKIRKPNDIETFKIENNWYFVVADSSKAGFTTIYKWNGNGFYSHQSLHAWYRDTDVEYLEIVRTPQTLRTPHLILSSSSQRPVIYQWNKATQLFTNQTDIPNMEDVYAVKHFSVKGDVYICLTRFIGDSKVMKWGGSSFQDIQRMPSRGSMVFQPLQINNYQYAILGSDYSFTQVYNWDAEKAKFVKFQELNVQAPRSFTHVSINKRNFLFASSFKGNTQIYKHVIVDLSA
notes: the protein has a signal peptide and is secreted; also called LGI1 wild type; WT; source: COS7, co-transfected with HA-ADAM22 or HA-ADAM23 (immunofluorescence); HEK293T, co-transfected, in lysate (co-IP)
percent of cells with membrane-bound LGI1 (HA-ADAM23): 88%
percent of cells with membrane-bound LGI1 (HA-ADAM22): 76%

B3: LGI1-S473L (Flag-tagged) (ligand, human, UniProt O95970 35-557, looked up)
chain: B1 chain with S439L
notes: LGI1 with the ADLTE-causing substitution S473L (c.1418C>T); secreted protein; also called c.1418C>T; source: COS7, co-transfected with HA-ADAM22 or HA-ADAM23 (immunofluorescence); HEK293T, co-transfected, in lysate (co-IP)
percent of cells with membrane-bound LGI1 (HA-ADAM23): 16%
percent of cells with membrane-bound LGI1 (HA-ADAM22): 3%

Next, values leading:

percent of cells with membrane-bound LGI1 (HA-ADAM23): 23%
percent of cells with membrane-bound LGI1 (HA-ADAM22): 13%
B2: LGI1-R474Q (Flag-tagged) (ligand, human, UniProt O95970 35-557, looked up)
chain: B1 chain with R440Q
notes: LGI1 with the ADLTE-causing substitution R474Q (c.1421G>A); secreted protein; also called c.1421G>A; source: COS7, co-transfected with HA-ADAM22 or HA-ADAM23 (immunofluorescence); HEK293T, co-transfected, in lysate (co-IP)

percent of cells with membrane-bound LGI1 (HA-ADAM23): 29%
percent of cells with membrane-bound LGI1 (HA-ADAM22): 36%
B4: LGI1-R407C (Flag-tagged) (ligand, human, UniProt O95970 35-557, looked up)
chain: B1 chain with R373C
notes: LGI1 with the ADLTE-causing substitution R407C (c.1219C>T); secreted protein; also called c.1219C>T; source: COS7, co-transfected with HA-ADAM22 or HA-ADAM23 (immunofluorescence); HEK293T, co-transfected, in lysate (co-IP)
